Here are results for one molecule from US20120213761A1 (MEDIZINISCHE UNIVERSITAET WIEN, published 2012).

In the experiment the target is T1, tumor necrosis factor receptor-associated factor 2 (TRAF2), endogenous, in human cardiac tissue (human, UniProt Q12933 2-501).
T1 construct: Immunoprecipitated from human cardiac tissue or tissue culture lysates with a TRAF2 antibody (BD Pharmingen)
T1 sequence (looked up): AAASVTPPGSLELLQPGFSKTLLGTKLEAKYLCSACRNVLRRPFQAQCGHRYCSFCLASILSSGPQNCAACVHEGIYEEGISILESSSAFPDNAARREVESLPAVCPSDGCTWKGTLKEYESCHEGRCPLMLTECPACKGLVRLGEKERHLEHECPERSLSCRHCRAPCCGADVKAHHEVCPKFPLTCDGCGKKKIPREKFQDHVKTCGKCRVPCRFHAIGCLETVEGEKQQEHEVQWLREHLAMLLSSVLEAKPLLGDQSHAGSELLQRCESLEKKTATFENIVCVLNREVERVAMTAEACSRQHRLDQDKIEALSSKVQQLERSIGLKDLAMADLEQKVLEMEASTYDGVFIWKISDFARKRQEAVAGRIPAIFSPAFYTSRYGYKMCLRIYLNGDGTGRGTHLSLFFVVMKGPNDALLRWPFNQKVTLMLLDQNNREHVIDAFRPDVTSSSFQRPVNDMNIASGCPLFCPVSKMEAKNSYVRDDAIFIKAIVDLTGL
Kind of experiment: co-IP of LV myocardial lysates, Western blot (FIG. 2A). As to the method:
Human cardiac tissue was lysed in the lysis buffer containing 20 mM Tris (pH 7.5), 135 mM NaCl, 2 mM ethylenediaminetetraacetic acid (EDTA), 2 mM dithiothreitol (DTT), 25 mM β-glycerophosphate, 2 mM sodium pyrophosphate, 10% glycerol, 1% Triton X-100, 1 mM sodium orthovanadate, 10 mM NaF and 1 mM phenylmethylsulfonyl fluoride (PMSF) supplemented with complete protease inhibitor cocktail (Roche Applied Science, Indianapolis, Ind., USA) at 4 C as described (Aharinejad et al., 2005). Lysates were centrifuged (15 000 g) at 4 C for 15 min. For identify GSTP1-TRAF2 complexes formation proteins (500 μg) were immunoprecipitated with TRAF2 antibody (0.5 μg, BD Pharmingen, San Diego, Calif.). […]
Protein lysates (50 μg/lane) were separated by SDS-PAGE (10%) prior to electrophoretic transfer onto a Nitrocellulose membrane (Bio-Rad, Hercules, Calif.) as described (Aharinejad et al., 2005). […] Protein loading was assessed by Ponceau S staining and immunodetection was performed by chemiluminescence (Supersignal-West-Pico, Pierce, Rockford, Bands were quantified by ImageQuant software and specific protein signals were normalized to loading controls and expressed as arbitrary units. The average value of three measurements in each sample was used for data analysis.

B1: Glutathione S-transferase P1 (GSTP1), endogenous, in human left ventricular myocardial lysates (enzyme)
chain: PPYTVVYFPVRGRCAALRMLLADQGQSWKEEVVTVETWQEGSLKASCLYGQLPKFQDGDLTLYQSNTILRHLGRTLGLYGKDQQEAALVDMVNDGVEDLRCKYISLIYTNYEAGKDDYVKALPGQLKPFETLLSQNQGGKTFIVGDQISFADYNLLDLLLIHEVLAPGCLDAFPLLSAYVGRLSARPKLKAFLASPEYVNLPINGNGKQ
notes: also called GST-pi; GSTP1-1
Consider B1, for which the binding result is “binds”.
